Source: patent US20210371514A1 (UNIVERSITY OF FLORIDA RESEARCH FOUNDATION, published 2021)

T1: Corticotropin-releasing hormone (CRH)
T1 construct: 41-amino acid peptide derived from a 196-amino acid preprohormone (Genbank EAW86897.1); also called CRF; CRF peptide
T1 peptide: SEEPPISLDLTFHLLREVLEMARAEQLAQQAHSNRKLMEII


What was measured:
[1] = molecular target: T1, Corticotropin-releasing hormone (CRH); experiment: direct CRH ELISA with lysate of transfected HEK 293t cells
Method: ScFv constructs offer the advantage of being able to be delivered to the brain via AAV vectors. DNA constructs for ScFv's composed of the heavy and light variable regions of Antibody A and Antibody B, connected by a linker peptide, were generated. The amino acid sequences of the Antibody A and Antibody B scFvs are set forth in SEQ ID NOs: 22 and 23, respectively. DNA constructs were then transfected into Human Embryonic Kidney (HEK) 293t cells and incubated 48 hours. Cells were then lysed and analyzed for CRH binding via a direct CRH ELISA.

[2] = molecular target: T1, Corticotropin-releasing hormone (CRH); experiment: method not stated (FIG. 2, affinity of monoclonal antibodies to CRH)
[3] = molecular target: T1, Corticotropin-releasing hormone (CRH); experiment: Octet red BLI, CRF peptide against Antibody B at 300 nM to 0.412 nM; same value printed in all seven rows of the table [upper table, CRF peptide]
[4] = molecular target: T1, Corticotropin-releasing hormone (CRH); experiment: Octet red BLI, CRF peptide against Antibody B at 300 nM to 0.412 nM; kdis(1/s), same value printed in all seven rows of the table [upper table, CRF peptide]

Binder | binding result [1] | Kd [2] [nM] | Kd [3] [nM] | kon [3] [M⁻¹ s⁻¹] | koff [4] [s⁻¹]
ScFv comprising the heavy and light variable regions of Antibody A (scFv, also called Antibody A scFv) scFv: DGVQCEVKLVESGGGLVKPGGSLKLSCAASGFTFSSYAMSWVRQTPEKRLEWVASISIGGSTYYRDSVKGRCTISRDNAKNILYLQMRSLRSEDTAMYYCARRGMDYWGQGTSVTVSSGGGGSGGGGSGGGGSDIVITQDELSNPVTSGESVSISCRSSKSLLYKDGKTYLNWFLQRPGQSPQLLIYLMSTRASGVSDRFSGSGSGTDFTLEISRVKAEDVGVYYCQQLVEYPLTFGAGTKLELKRASGHHHHHHGSDYKDDDDK | binds | – | – | – | –
anti-CRH antibody B (antibody, V domains shown, Mouse monoclonal antibody raised with Peptide B (CRH 1-21), purified (QED bio); It was detected with anti-mouse IgG-HRP, and mouse IgG1 served as isotype control in vivo) VH: EVQLQQSGPELVKPGVSMKISCKASGYSFTDSTMNWVKQSHGKNLEWIGLIHPDNGGTIYNQKFKGKATLTVHKSSSTAYMELLSLTSEDSAVYYCANGFAYWGQGTLVTVSA VL: DVVMTQTPLSLPVSLGDQASISCRSSQSLLHSNGNTYLHWYLQKPGQSPELLIYKVSNRFSGVPDRFSGSGSGTDFTLKISRVEAEDLGVYFCSQSTHVPLTFGAGTKLELK | – | 20.9 | < 0.001 | 97500 | < 1e-07
anti-CRH antibody A (antibody, V domains shown, Mouse monoclonal antibody raised with Peptide A (CRH 1-15)) VH: EVKLVESGGGLVKPGGSLKLSCAASGFTFSSYAMSWVRQTPEKRLEWVASISIGGSTYYRDSVKGRCTISRDNAKNILYLQMRSLRSEDTAMYYCARRGMDYWGQGTSVTVSS VL: DIVITQDELSNPVTSGESVSISCRSSKSLLYKDGKTYLNWFLQRPGQSPQLLIYLMSTRASGVSDRFSGSGSGTDFTLEISRVKAEDVGVYYCQQLVEYPLTFGAGTKLELK | – | < 0.001 | – | – | –
ScFv comprising the heavy and light variable regions of Antibody B (scFv, also called Antibody B scFv) scFv: DEVQLQQSGPELVKPGVSMKISCKASGYSFTDSTMNWVKQSHGKNLEWIGLIHPDNGGTIYNQKFKGKATLTVHKSSSTAYMELLSLTSEDSAVYYCANGFAYWGQGTLVTVSAAKTTPPSVYPLAPGSAAGGGGSGGGGSGGGGSDVVMTQTPLSLPVSLGDQASISCRSSQSLLHSNGNTYLHWYLQKPGQSPELLIYKVSNRFSGVPDRFSGSGSGTDFTLKISRVEAEDLGVYFCSQSTHVPLTFGAGTKLELKGSHHHHHHGSDYKDDDDK | binds | – | – | – | –
